PMC7782693, “Structural insights into photoactivation of plant Cryptochrome-2” (Communications Biology, 2021)

Legend:
[1] = target: the molecule itself; assay: crystal structure; hanging-drop vapor diffusion at 25 °C under continuous full-spectrum white light (40 μmol m^2 s^-1); 1.5 M sodium nitrate, 0.1 M BIS-TRIS propane pH 7.0; tetramer of four monomers A-D
[2] = target: the molecule itself; assay: SEC; Superdex-200 gel filtration, 20 mM Tris pH 8.0, 200 mM NaCl, 2 mM DTT, 4% glycerol; molecular weights estimated against standards

B1: Arabidopsis CRY2 photolyase homologous region (PHR) domain (domain or fragment, Arabidopsis thaliana, UniProt Q96524 1-498, looked up)
chain: MKMDKKTIVWFRRDLRIEDNPALAAAAHEGSVFPVFIWCPEEEGQFYPGRASRWWMKQSLAHLSQSLKALGSDLTLIKTHNTISAILDCIRVTGATKVVFNHLYDPVSLVRDHTVKEKLVERGISVQSYNGDLLYEPWEIYCEKGKPFTSFNSYWKKCLDMSIESVMLPPPWRLMPITAAAEAIWACSIEELGLENEAEKPSNALLTRAWSPGWSNADKLLNEFIEKQLIDYAKNSKKVVGNSTSLLSPYLHFGEISVRHVFQCARMKQIIWARDKNSEGEESADLFLRGIGLREYSRYICFNFPFTHEQSLLSHLRFFPWDADVDKFKAWRQGRTGYPLVDAGMRELWATGWMHNRIRVIVSSFAVKFLLLPWKWGMKYFWDTLLDADLECDILGWQYISGSIPDGHELDRLDNPALQGAKYDPEGEYIRQWLPELARLPTEWIHHPWDAPLTVLKASGVELGTNYAKPIVDIDTARELLAKAISRTREAQIMIGAA
notes: Cryptochrome-2 (CRY2), Arabidopsis thaliana, PHR domain, residues 1-498, wild type; Expressed as a GST fusion from the pFastbac-GST vector; GST removed by TEV protease on the column; The crystal holds four copies (monomers A-D); in solution mostly monomer; also called AtCRY2-PHR; CRY2-PHR
stoichiometry N [1]: 4
stoichiometry N [2]: 2
